Assay results published in the supplement of paper PMC7125110.
± gives the standard error. Variants at the floor of the assay were thinned out.

B1: glmS ribozyme (parent)
chain: AUAAAAGCGCCAGAACUACAGAAAUGUAGUUGACGAGGAGGAGGUUUAUCGAAUUUUCGGCGGAUGCCUCCAAA

Key:
Conditions in all cases: with glucosamine-6-phosphate
glucosamine-6-phosphate [1] = variants of: B1; assay: self-cleavage kobs at 160 uM GlcN6P; higher = faster cleavage; RNA array
Procedure, shortened: (§1)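 Glucosamine-6-phosphate (40 μM to 10 mM) in HEPES/KCl/Mg(OAc)2 buffer was flowed over sequenced MiSeq chips, and tiles were imaged over ~14 h. Barcoded ribozyme variants there had been transcribed in situ by E. coli RNA polymerase and were tracked through a hybridised Cy3 probe at 37 °C. One- or two-exponential decay fits to per-tile medians, normalised to baseline and to non-cleaving reference variants, gave kobs. kcat and KM came from weighted Michaelis–Menten fits across concentrations.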

glucosamine-6-phosphate [2] = variants of: B1; assay: self-cleavage kobs at 640 uM GlcN6P; higher = faster cleavage; RNA array
Procedure, shortened: as §1

glucosamine-6-phosphate [3] = variants of: B1; assay: self-cleavage kobs at 2500 uM GlcN6P; higher = faster cleavage; RNA array
Procedure, shortened: as §1

glucosamine-6-phosphate [4] = variants of: B1; assay: self-cleavage kobs at 10000 uM GlcN6P; higher = faster cleavage; RNA array
Procedure, shortened: as §1

Variant	self-cleavage kobs at 160 uM GlcN6P (glucosamine-6-phosphate [1]) [s⁻¹]	self-cleavage kobs at 640 uM GlcN6P (glucosamine-6-phosphate [2]) [s⁻¹]	self-cleavage kobs at 2500 uM GlcN6P (glucosamine-6-phosphate [3]) [s⁻¹]	self-cleavage kobs at 10000 uM GlcN6P (glucosamine-6-phosphate [4]) [s⁻¹]
A14G U57A	4.7e-05 ± 1.1e-05	0.000139 ± 2.9e-05	0.000418 ± 4.7e-05	
U47C U69G		4.72e-05 ± 1.9e-05	0.000104 ± 2.3e-05	6.08e-05 ± 1.5e-05
G9U G40C C50G		< 1e-05	< 1e-05	
U54C U55G C58A		7.47e-05 ± 1.6e-05	0.000102 ± 1.2e-05	
C16A G43U		< 1e-05		< 1e-05
A36U G41C	< 1e-05		< 1e-05	< 1e-05
G9C G37C U46C C50G		< 1e-05	< 1e-05	
G38A G41C	< 1e-05	< 1e-05	< 1e-05	< 1e-05
C16A A52G C70U		0.00109 ± 0.00029		
G51C G59U C71U	< 1e-05		< 1e-05	
A14U G35U A39G C50U	< 1e-05			
G38C G43C C68U		< 1e-05		
G26U G32U		0.000131 ± 4.5e-05	0.000943 ± 0.00021	
G7C C68G	< 1e-05	< 1e-05	< 1e-05	< 1e-05
C8U G32C U45C		< 1e-05	< 1e-05	
U30C C34G		< 1e-05		< 1e-05
G7C G9C G44A		< 1e-05		< 1e-05
C8G G51C C68G	< 1e-05	< 1e-05		
A6G C11A A14U G40A	< 1e-05			
C11G C50G C61U		7.22e-05 ± 3.5e-05	6.44e-05 ± 2.1e-05	
G32A G35U U57A		< 1e-05		
G9A G66U		< 1e-05	< 1e-05	
U47G U49G G51A G62U	< 1e-05	< 1e-05	< 1e-05	
U55G U56G U69C	0.000134 ± 3.4e-05	0.000115 ± 2.6e-05	0.000201 ± 4.3e-05	

Variant	self-cleavage kobs at 160 uM GlcN6P (glucosamine-6-phosphate [1]) [s⁻¹]	self-cleavage kobs at 640 uM GlcN6P (glucosamine-6-phosphate [2]) [s⁻¹]	self-cleavage kobs at 2500 uM GlcN6P (glucosamine-6-phosphate [3]) [s⁻¹]	self-cleavage kobs at 10000 uM GlcN6P (glucosamine-6-phosphate [4]) [s⁻¹]
A52C A53U C67U C68U		6.36e-05 ± 3e-05	9.26e-05 ± 4.1e-05	
A33C A42U U46C U54G	< 1e-05		< 1e-05	
G13C A53U G59A C71U	< 1e-05		< 1e-05	
C11A A12C A53G U56G		6.8e-05 ± 1.5e-05	0.000323 ± 6.9e-05	
G9U C34G C58U		< 1e-05	< 1e-05	
A12C A15C U30G U49G G59A A64G		< 1e-05	< 1e-05	
C11A G59U C70G C71U		0.000202 ± 5.2e-05	0.00032 ± 6.5e-05	0.00015 ± 4.4e-05
A14U G29U C50G		8.61e-05 ± 3.2e-05		
C8G G40C		< 1e-05	< 1e-05	< 1e-05
C10G A36G U45G U49A G66A C71U		< 1e-05	< 1e-05	
A6U C16U G43U U65G		< 1e-05		
A14U U30A C50G C58G	0.000116 ± 2.1e-05	9.41e-05 ± 1.7e-05	0.000131 ± 2.3e-05	
G7A G37C A64G	< 1e-05			
U31A G63C C68G	< 1e-05			
G41U C50U	< 1e-05	< 1e-05	< 1e-05	< 1e-05
A33C A64U C70A	< 1e-05		< 1e-05	
U55A G60C U65A		< 1e-05	< 1e-05	
U30A G44C U45G A48C U57A		< 1e-05		
A33G A53U	< 1e-05		< 1e-05	< 1e-05
G13C U46C	< 1e-05	< 1e-05		
C10G C11A C58A G66U		< 1e-05		
A36C G38C G60C U65A		< 1e-05		
U31C G37A C70G		< 1e-05		
U49A G63U		< 1e-05		

Variant	self-cleavage kobs at 160 uM GlcN6P (glucosamine-6-phosphate [1]) [s⁻¹]	self-cleavage kobs at 640 uM GlcN6P (glucosamine-6-phosphate [2]) [s⁻¹]	self-cleavage kobs at 2500 uM GlcN6P (glucosamine-6-phosphate [3]) [s⁻¹]	self-cleavage kobs at 10000 uM GlcN6P (glucosamine-6-phosphate [4]) [s⁻¹]
A36C C67A		< 1e-05		
U49A A52U	< 1e-05	< 1e-05	< 1e-05	< 1e-05
C11U U31C A39U A52C A64G	< 1e-05		< 1e-05	
C11G A33U U54A U65G		< 1e-05		
C8U U56G	< 1e-05	< 1e-05	< 1e-05	
C34A U54A	< 1e-05		< 1e-05	
A6U C70A		0.000142 ± 6.1e-05	2.49e-05 ± 9.6e-06	
G13C C58U G59U	< 1e-05			
G35U A36G A42G U55C	< 1e-05		< 1e-05	
A39G G62U	< 1e-05	< 1e-05	< 1e-05	
C11G G37C C68U		9.13e-05 ± 3.1e-05		
U30A G60U C71A		< 1e-05	< 1e-05	
A36U C61U A64G	< 1e-05	< 1e-05		
G40U G44U C58G	< 1e-05			
U30C G38A G44A		< 1e-05	< 1e-05	
A15G C16G A33C U49G A53U	< 1e-05	< 1e-05		
A15G G29A G63C		< 1e-05		
C11U G43U A48G C71G	< 1e-05	< 1e-05	< 1e-05	
A14C C16U A36G		< 1e-05		
C11U A14G C70U	0.00076 ± 0.00021	0.000656 ± 0.00014	0.00193 ± 0.0006	
U30A U54C G63A		< 1e-05		
A53G U57C		0.000146 ± 4.6e-05	0.000159 ± 4.1e-05	0.0005 ± 8.7e-05
G37U G44C U47C G63A		< 1e-05	< 1e-05	
A12G A36C G66C C68G	< 1e-05			

Variant	self-cleavage kobs at 160 uM GlcN6P (glucosamine-6-phosphate [1]) [s⁻¹]	self-cleavage kobs at 640 uM GlcN6P (glucosamine-6-phosphate [2]) [s⁻¹]	self-cleavage kobs at 2500 uM GlcN6P (glucosamine-6-phosphate [3]) [s⁻¹]	self-cleavage kobs at 10000 uM GlcN6P (glucosamine-6-phosphate [4]) [s⁻¹]
C34G G59C	< 1e-05	< 1e-05		< 1e-05
U46C C71G		7.56e-05 ± 1.5e-05	0.000331 ± 5e-05	0.000149 ± 6.2e-05
G7U G40A G43C		< 1e-05	< 1e-05	
G59A C61A		< 1e-05	< 1e-05	
G7A A12C U49C G62A		< 1e-05	< 1e-05	
U49C U65A		< 1e-05		< 1e-05
G29U A53G U57C C67G U69A		0.000459 ± 0.00022		
G32A G35C A39G		< 1e-05	< 1e-05	
G59A U69A		< 1e-05		
G9A C10U C58U		< 1e-05		
A14U A33U C50G G66U		0.0013 ± 0.00063	6.05e-05 ± 2.7e-05	
A42C U54G	< 1e-05			
A6C G41A U55C U65G		< 1e-05		
A36G C61G	< 1e-05	< 1e-05		< 1e-05
U55A C58U C61A C67A		8.67e-05 ± 2.1e-05		
U31A U69C C71G		8.22e-05 ± 1.8e-05	6.01e-05 ± 1.7e-05	3.9e-05 ± 1.6e-05
C8A C16A U47C C58G	< 1e-05	< 1e-05		
A15U G41A G44U C50U		< 1e-05		
C34U G41A	< 1e-05	< 1e-05	< 1e-05	< 1e-05
A33C G40U G44C U45A G62U	< 1e-05			
U30G U49C		< 1e-05	< 1e-05	
C11A G38U G40U	< 1e-05			
G7U G13U A15C	< 1e-05	< 1e-05	< 1e-05	
U54C G60C C67G		< 1e-05		

Variant	self-cleavage kobs at 160 uM GlcN6P (glucosamine-6-phosphate [1]) [s⁻¹]	self-cleavage kobs at 640 uM GlcN6P (glucosamine-6-phosphate [2]) [s⁻¹]	self-cleavage kobs at 2500 uM GlcN6P (glucosamine-6-phosphate [3]) [s⁻¹]	self-cleavage kobs at 10000 uM GlcN6P (glucosamine-6-phosphate [4]) [s⁻¹]
A36U C50U	< 1e-05		< 1e-05	
U54G U56A	0.000806 ± 0.00016	0.00244 ± 0.00071	0.012 ± 0.0054	0.0311 ± 0.013
C8U G40U	< 1e-05		< 1e-05	< 1e-05
G40A U47C	0.000162 ± 4.2e-05			0.00144 ± 0.00069
U54A U55G A64C		3.35e-05 ± 1.7e-05	5.81e-05 ± 1.7e-05	
U30G G40C A53G G62C		< 1e-05		
G37A G63A C71A		< 1e-05	< 1e-05	
C11U C68G		0.000314 ± 0.00012		
A15C G32A U55C G59U		< 1e-05		
G40U U45C C67G		4.79e-05 ± 1.9e-05	7.13e-05 ± 1.7e-05	
G32A U55G G59C C70G	6.64e-05 ± 2.6e-05	0.000174 ± 6.5e-05	5.89e-05 ± 2.5e-05	
C8G G13U G43A U46G C50U	< 1e-05	< 1e-05		
U31C G35C G40C	< 1e-05		< 1e-05	< 1e-05
C10U G44U C61A	< 1e-05	< 1e-05	< 1e-05	
A14G G44U U46A		0.000181 ± 4.5e-05	0.000253 ± 8.6e-05	
U49C A52U G62U		< 1e-05		
U30A U46G U55G		0.000157 ± 3.5e-05	0.000349 ± 6.6e-05	
G13U G51C U65G	< 1e-05	< 1e-05		
C10U C16U C71G		6.17e-05 ± 2.9e-05		
G35C A42C C50U G51U		< 1e-05		
U46G C50G C71A		8.98e-05 ± 3.3e-05		
A12C C16A A33U		< 1e-05		
